Target: SARS-CoV-2 Spike蛋白 (去除末端19个氨基酸), 新冠假病毒表面 (SARS-CoV-2, UniProt P0DTC2 14-1254)
Experiment: cell-based or functional assay

B1: 人鼠嵌合全抗体mhC3 (antibody, V domains shown)
VH: EVQLVESGGDLVKPGGSLKLSCAASGFTFNTYAMNWVRQTPGKGLEWVARIRSKSNNYATYYADSVKDRFTISRDDSQSMLYLQMNNLKTEDTAMYYCVTPYYGNYADWFTYWGQGTSVTVSS
VL: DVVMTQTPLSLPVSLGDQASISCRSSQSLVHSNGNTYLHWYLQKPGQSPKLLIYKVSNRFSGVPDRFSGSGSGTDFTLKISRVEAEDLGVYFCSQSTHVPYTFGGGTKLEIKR
notes: also called mhC3抗体; C3 (图5、图6)
- 中和新冠假病毒 EC50 (luciferase, Huh7细胞): 0.223 µg/mL
